Test results taken from patent US20060134122A1, “Peptides of syndecan-1 for inhibition of cancer” (priority 2004, published 2006).

What was measured:
[1] = tested on: MDA-MB-231 human mammary carcinoma cells; details: no integrin ligand; Beauvais and Rapraeger, 2003; cited from earlier work
[2] = tested on: MDA-MB-231 and MB-435 cells; assay: Migration across coated filters (modified Boyden chamber), MDA-MB-231 and MB-435; assay type: cell-based, human; details: S1ED pAb 250 μg/mL or GST-mS1ED 20 μM; 16 h
Experimental: (§1) FIGS. 5A-B—Sdc-1ED Inhibitors disrupt αvβ3 integrin-dependent cell migration on VN. MDA-MB-231, MDA-MB-435 and MCF-7 cells in plating medium alone (black-filled) or in plating medium containing either 20 μM GST-mS1ED (open) or 250 μg/mL polyclonal mS1ED antibodies (gray-filled) were seeded on polycarbonate filters coated with either 10 μg/ml of VN (FIG. 5A) or FN (FIG. 5B) in a modified Boyden chamber. After 16 h, cells that migrated through the filter in response to 10% FBS in the lower chamber were quantified by colorimetric staining.
(§2) To test the role of the S1ED in αvβ3 integrin dependent signaling in another functional assay, cells were examined for their ability to migrate across VN or FN-coated filters in the presence or absence of S1ED pAb (250 μg/mL) or GST-mS1ED recombinant protein (20 μM). Migration of treated MDA-MB-231 and MB-435 cells across VN is suppressed 2- to 4-fold relative to untreated controls (FIG. 5A). MCF-7 cell migration across VN, which is αvβ1 dependent, is unaffected by either treatment.

[3] = tested on: MCF-7 human carcinoma cells; assay: Cell spreading assay, MCF-7; assay type: cell-based; details: 10 μg/mL VN, 2 h; LM609 30 μg/mL; mAb 13 25 μg/mL; GST-mS1ED 20 μM
Experimental: FIG. 3—MDA-MB-435, but not MCF-7, human carcinoma cells display functional coupling of Sdc-1 and αvβ3 integrins on VN. Depicted are phalloidin-stained cells 2 h after plating on wells coated with 10 μg/mL VN (upper half) or FN (lower half) in plating medium alone or medium containing either 30 μg/mL mAb LM609, 25 μg/mL mAb 13, 20 μM GST-mS1ED or -mS4ED. Bar, 50 μm.
MDA-MB-435, but not MCF-7, human carcinoma cells display functional coupling of Sdc-1 and αvβ3 integrin on VN. To test whether activation of αvβ3 integrin activation on matrix is also functionally coupled to Sdc-1, MDA-MB-435 and MCF-7 cells were plated on either VN or FN (FIG. 3). MDA-MB-435 cells spread on VN and require αvβ3 integrins for this activity as spreading is blocked by mAb LM609. Although the MCF-7 cells spread on VN, this spreading is unaffected by LM609; these cells rely instead on αvβ1 integrins as spreading is blocked by either mAb 13 (FIG. 3) or αv-specific mAb M9 (unpublished data; de Vries et al., 1986). Neither cell type utilizes αvβ3 to respond to FN, rather both utilize […] that are blocked by either mAb 13 (FIG. 3) or mAb 16 (unpublished data).
To test whether GST-mS1ED specifically blocks αvβ3 integrin-dependent spreading or acts as a general inhibitor to all αv integrin heterodimers, MDA-MB-435 and MCF-7 cells were plated on VN in the presence of 20 μM GST-mS1ED. […]

[4] = target: αvβ3 integrin (human, on MDA-MB-231, MDA-MB-435, HAEC and HMEC cells) (human) (UniProt P06756); assay: cell-based or functional assay
Sequence of αvβ3 integrin (human, on MDA-MB-231, MDA-MB-435, HAEC and HMEC cells) (human) (P06756 31-1048, chain 1 of 2): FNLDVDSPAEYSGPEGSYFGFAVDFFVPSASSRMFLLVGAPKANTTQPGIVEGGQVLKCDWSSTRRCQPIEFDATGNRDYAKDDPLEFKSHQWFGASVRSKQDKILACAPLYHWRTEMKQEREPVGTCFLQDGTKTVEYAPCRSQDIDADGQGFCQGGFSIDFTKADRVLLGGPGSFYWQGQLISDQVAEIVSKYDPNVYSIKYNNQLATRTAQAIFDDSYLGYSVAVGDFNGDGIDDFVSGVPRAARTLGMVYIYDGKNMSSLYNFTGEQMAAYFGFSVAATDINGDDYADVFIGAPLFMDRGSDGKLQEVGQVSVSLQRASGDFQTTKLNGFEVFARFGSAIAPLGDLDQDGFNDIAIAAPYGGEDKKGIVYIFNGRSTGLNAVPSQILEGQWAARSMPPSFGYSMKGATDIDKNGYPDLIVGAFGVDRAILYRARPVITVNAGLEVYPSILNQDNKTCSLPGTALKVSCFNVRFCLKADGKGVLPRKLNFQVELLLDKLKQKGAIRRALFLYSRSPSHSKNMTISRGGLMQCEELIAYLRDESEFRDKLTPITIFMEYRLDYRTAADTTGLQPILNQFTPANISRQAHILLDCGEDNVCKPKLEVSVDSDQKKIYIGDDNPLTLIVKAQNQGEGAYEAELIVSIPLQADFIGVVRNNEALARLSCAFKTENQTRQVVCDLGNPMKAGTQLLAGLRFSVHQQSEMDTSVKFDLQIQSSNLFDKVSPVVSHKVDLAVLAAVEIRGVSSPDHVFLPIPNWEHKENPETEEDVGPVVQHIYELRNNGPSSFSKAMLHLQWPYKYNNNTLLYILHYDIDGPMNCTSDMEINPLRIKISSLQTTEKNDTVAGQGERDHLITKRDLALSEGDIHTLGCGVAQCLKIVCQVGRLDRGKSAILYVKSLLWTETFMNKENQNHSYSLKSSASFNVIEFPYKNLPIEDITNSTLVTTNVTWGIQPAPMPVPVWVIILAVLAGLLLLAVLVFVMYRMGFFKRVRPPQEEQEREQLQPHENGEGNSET
Sequence of αvβ3 integrin (human, on MDA-MB-231, MDA-MB-435, HAEC and HMEC cells) (human) (P05106 27-788, chain 2 of 2, further chain): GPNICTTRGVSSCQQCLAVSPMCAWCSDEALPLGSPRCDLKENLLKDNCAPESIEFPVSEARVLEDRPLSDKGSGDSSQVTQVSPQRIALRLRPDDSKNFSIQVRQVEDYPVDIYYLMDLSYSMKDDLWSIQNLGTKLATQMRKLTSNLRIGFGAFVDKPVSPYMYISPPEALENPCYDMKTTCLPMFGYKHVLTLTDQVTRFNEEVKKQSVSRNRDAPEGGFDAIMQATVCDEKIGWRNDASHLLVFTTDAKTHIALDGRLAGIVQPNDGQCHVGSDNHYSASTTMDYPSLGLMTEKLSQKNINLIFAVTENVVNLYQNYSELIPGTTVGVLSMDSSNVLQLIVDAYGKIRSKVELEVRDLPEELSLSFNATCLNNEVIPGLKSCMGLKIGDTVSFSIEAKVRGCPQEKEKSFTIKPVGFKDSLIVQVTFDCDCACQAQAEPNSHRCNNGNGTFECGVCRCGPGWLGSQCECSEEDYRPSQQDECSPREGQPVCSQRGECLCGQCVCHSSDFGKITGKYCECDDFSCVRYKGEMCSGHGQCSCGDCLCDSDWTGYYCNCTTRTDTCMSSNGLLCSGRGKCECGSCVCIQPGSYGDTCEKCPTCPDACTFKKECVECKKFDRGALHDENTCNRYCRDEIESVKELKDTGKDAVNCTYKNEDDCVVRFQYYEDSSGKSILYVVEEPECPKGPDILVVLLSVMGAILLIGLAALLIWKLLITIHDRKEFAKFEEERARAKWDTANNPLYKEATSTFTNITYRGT

[5] = tested on: MCF-7 cells; assay: Migration across coated filters (modified Boyden chamber), MCF-7; assay type: cell-based, human; details: S1ED pAb 250 μg/mL or GST-mS1ED 20 μM; 16 h
Experimental: as §1, §2

[6] = tested on: Human aortic endothelial cells (HAEC); assay: HAEC spreading on VN; assay type: cell-based; details: 1-10 uM GST-mS1ED
Experimental: FIG. 13—Human aortic endothelial cells rely on αvβ3 and αvβ5 integrins for spreading on VN. Human aortic endothelial cells (HAECs) were suspended and replated on 10 μg/ml VN in the presence of integrin inhibitory antibodies mAb 13 (specific for β1-containing integrins; this will inhibit the αvβ1 integrin), LM609 (specific for the αvβ3 integrin) and P1F6 (specific for the αvβ5 integrin), or combinations of these antibodies. After 2 hr, the cells were fixed, stained with Alexa488-conjugated phalloidin to aid in visualization, and observed by fluorescence microscopy to document integrin-dependent spreading. Inhibition of spreading requires simultaneous inhibition of both the αvβ3 and αvβ5 integrins.
FIG. 15—αvβ3 and αvβ5 integrin-mediated spreading of human aortic endothelial cells on VN is disrupted by recombinant syndecan-1 ectodomain fusion protein. HAECs are plated on VN in the presence of no competitor, 1-10 uM GST-mS1ED (recombinant mouse syndecan-1 ectodomain expressed as a fusion protein with GST) or GST alone.
FIG. 16—Inhibition of HAEC spreading on VN by silencing of Sdc-1. HAECs were transfected with a range of concentrations of siRNA specific for human Sdc1 (hS1), which achieves 80-88% silencing at 100-200 nM, as shown by flow cytometry using human Sdc-1 mAb B-B4. The cells treated with 200 nM siRNA were also plated on VN for 2 hr and display a 60% reduction in cell spreading. […]

migration of MDA-MB-231 and MB-435 cells across VN, 20 µM GST-mS1ED [4]: 2 to 4 fold
B1: GST-mS1ED: recombinant mouse syndecan-1 ectodomain expressed as a fusion protein with GST (protein)
chain: QIVAVNVPPEDQDGSGDDSDNFSGSGTGALPDTLSRQTPSTWKDVWLLTATPTAPEPTSSNTETAFTSVLPAGEKPEEGEPVLHVEAEPGFTARDKEKEVTTRPRETVQLPITQRASTVRVTTAQAAVTSHPHGGMQPGLHETSAPTAPGQPDHQPPRVEGGGTSVIKEVVEDGTANQLPAGEGSGEQDFTFETSGENTAVAAVEPGLRNQPPVDEGATGASQSLLDRKEVLG
modifications: left off: a dimerising Fc or GST
notes: recombinant mouse syndecan-1 ectodomain expressed as a fusion protein with GST
collaboration between Sdc-1 and αvβ3 integrins in cells adherent to Sdc-1-specific antibody [1]: disrupted
cell migration across FN [2]: neither inhibitor has any effect
cell spreading on VN [3]: Only the MDA-MB-435 cells fail to spread
cell migration across FN [5]: neither inhibitor has any effect
cell migration across VN [5]: unaffected
αvβ3 and αvβ5 integrin-mediated spreading on VN [6]: disrupted
